Reference: doi:10.1101/2020.03.27.011510 (bioRxiv, 2020)

Columns and labels:
BIR1 C12A/S87A/N28C-GdI = BIR1 C12A/S87A/N28C-GdI (UniProt P98170); test: DEER
DEER [1] = target: the molecule itself; test: DEER
NMR titration = target: the molecule itself; test: NMR titration
DEER [2] = target: the molecule itself; test: DEER; remark: listed apart in the source

Row | Molecule | Kd (DEER [1]) [µM] | also measured
1 | BIR1 C12A/S87A/N28C-GdI (from UniProt P98170 10-99) (domain or fragment) |  | Kd (BIR1 C12A/S87A/N28C-GdI): 97.5 µM
2 | WT BIR1 C12-GdI (first baculoviral IAP repeat domain of XIAP, spin-labelled at C12 with BrPSPy-DO3A-Gd3+) (domain or fragment, BrPSPy-DO3A-Gd3+ (GdI) spin label on C12 via a thioether bond) KTCVPADINKEEEFVEEFNRLKTFANFPSGSPVSASTLARAGFLYTGEGDTVRCFSCHAAVDRWQYGDSAVGRHRKVSPNCRFINGFYLE | 126 ± 40 | 
3 | BIR1 C12A/V24C-GdI (domain or fragment, BrPSPy-DO3A-Gd3+ (GdI) spin label on C24 (V24C) via a thioether bond) KTAVPADINKEEEFCEEFNRLKTFANFPSGSPVSASTLARAGFLYTGEGDTVRCFSCHAAVDRWQYGDSAVGRHRKVSPNCRFINGFYLE | 126 ± 40 | 
4 | WT BIR1 (first baculoviral IAP repeat domain of XIAP), without spin label (domain or fragment, 15N isotope-labelled (NMR samples)) KTCVPADINKEEEFVEEFNRLKTFANFPSGSPVSASTLARAGFLYTGEGDTVRCFSCHAAVDRWQYGDSAVGRHRKVSPNCRFINGFYLE |  | Kd (NMR titration): 4.7 ± 2 µM
5 | BIR1 C12A/K19C-GdI (domain or fragment, BrPSPy-DO3A-Gd3+ (GdI) spin label on C19 (K19C) via a thioether bond) KTAVPADINCEEEFVEEFNRLKTFANFPSGSPVSASTLARAGFLYTGEGDTVRCFSCHAAVDRWQYGDSAVGRHRKVSPNCRFINGFYLE | 126 ± 40 | 
6 | BIR1 C12A/E22C-GdI (domain or fragment, BrPSPy-DO3A-Gd3+ (GdI) spin label on C22 (E22C) via a thioether bond) KTAVPADINKEECFVEEFNRLKTFANFPSGSPVSASTLARAGFLYTGEGDTVRCFSCHAAVDRWQYGDSAVGRHRKVSPNCRFINGFYLE | 126 ± 40 | 
7 | BIR1 C12A/N28C-GdI (domain or fragment, BrPSPy-DO3A-Gd3+ (GdI) spin label on C28 (N28C) via a thioether bond) KTAVPADINKEEEFVEEFCRLKTFANFPSGSPVSASTLARAGFLYTGEGDTVRCFSCHAAVDRWQYGDSAVGRHRKVSPNCRFINGFYLE | 126 ± 40 | Kd (DEER [2]): 11.3 ± 3.8 µM
8 | S87A BIR1 mutant, without spin label (domain or fragment, 15N isotope-labelled (NMR samples)) KTCVPADINKEEEFVEEFNRLKTFANFPSGSPVSASTLARAGFLYTGEGDTVRCFSCHAAVDRWQYGDSAVGRHRKVAPNCRFINGFYLE |  | Kd (NMR titration): 20.3 ± 4.6 µM
